In PMC9543391, “ERp57 chaperon protein protects neuronal cells from Aβ‐induced toxicity” (Journal of Neurochemistry, 2022):
“Also recorded” adds a separate entry of the source. Blank lines part the entries; values can stand above or below the molecule they belong to. Peptide text beside a SMILES is read from it.

Legend:
[1] = tested on: SH‐SY5Y cells; assay: MTT cell viability assay; type: cell-based, human
Experimental: For the cell viability experiments, 96‐well plates were seeded with 10 000 cells/well. After 24 h, cells were treated with 30 μM Aβ25−35 aggregated for 72 h in the presence or in the absence of 0.12 μM of ERp57 or GST recombinant proteins (in a 1:250 ratio), in a final volume of 150 μl per well. Plates were incubated for 24 h in an incubator at 37°C, 5% of CO2, and 99% RH. Thereafter, 20 μl of (3‐[4,5‐Dimethylthiazol‐2‐yl]‐2,5‐Diphenyltetrazolium Bromide) (MTT) dye (stock solution 5 mg/ml in PBS) (catalog number #M2003) was added to the wells and incubated for additional 2 h at 37°C and 5% CO2. Water‐insoluble formazan crystals were dissolved in 100 μl of DMSO (catalog number #472301). For spectrophotometric measurements, Appliscan® plate reader (Thermo scientific) was used at the wavelength 570 nm, with reference set at 690 nm.

[2] = target: T1, ERp57 (Homo sapiens, UniProt P30101); assay: Surface plasmon resonance, Aβ25−35 binding to immobilized ERp57; details: SPR, ERp57 on COOH5 sensorchip; global fitting with one binding site; non-aggregated Aβ25−35 15.6 μM–1.0 mM; HBSP buffer pH 7.4; 25°C; read-out: overall K D
T1 construct: made in house; host or cells: E. coli BL21, vector pET21
T1 sequence (P30101 25-505): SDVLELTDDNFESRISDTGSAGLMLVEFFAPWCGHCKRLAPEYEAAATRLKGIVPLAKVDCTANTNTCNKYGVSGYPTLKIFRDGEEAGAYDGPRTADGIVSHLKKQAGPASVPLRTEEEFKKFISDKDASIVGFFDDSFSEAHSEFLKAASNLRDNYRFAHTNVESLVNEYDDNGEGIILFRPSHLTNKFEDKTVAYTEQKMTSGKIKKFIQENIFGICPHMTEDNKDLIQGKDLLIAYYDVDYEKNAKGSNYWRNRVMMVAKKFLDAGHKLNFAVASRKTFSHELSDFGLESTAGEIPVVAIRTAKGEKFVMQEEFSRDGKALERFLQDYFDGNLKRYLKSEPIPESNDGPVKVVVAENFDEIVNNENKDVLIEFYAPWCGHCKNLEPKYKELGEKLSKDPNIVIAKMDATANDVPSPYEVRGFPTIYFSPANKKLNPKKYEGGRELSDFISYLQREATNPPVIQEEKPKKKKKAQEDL
Text: Human recombinant PDIA3 was cloned and expressed in E. coli strain BL21 (Invitrogen™, catalog number C600003) using the expression vector pET21 (Novagen, catalog number 69770) as described by Coppari (Coppari et al., [2002]). The coding sequence for the second redox‐active domain (aʹ domain, residues 377–505) was amplified by PCR as previously described and cloned in the expression vector pET29 (Novagen) (Grillo et al., [2002]). Recombinant proteins were expressed in E. coli strain BL21 and purified by ammonium sulfate fractionation, ion exchange, and heparin chromatography (Grillo et al., [2006]). Protein purification was evaluated by SDS‐PAGE and concentration was determined spectrophotometrically (PDIA3 Ɛ280 reduced form = 44 810 M^−1 cm^−1, aʹ domain Ɛ280 reduced form = 14 400 M^−1 cm^−1). Rabbit anti‐ERp57 primary antibody will be shared upon reasonable request.
SPR experiments were performed with a SensiQ Pioneer apparatus. […] The amount of immobilized ERp57 was detected by mass concentration‐dependent changes in the refractive index on the sensorchip surface and corresponded to about 4000 resonance units (RU). […] Values of the plateau signal at steady‐state (Req) and full fittings with 1, 2, and 3 sites were calculated from kinetic evaluation of the sensorgrams using the Qdat 4.0 program.

[3] = tested on: AD 5XFAD mice model; details: activation of ERp57, cerebral cortex and hippocampus, ref Tohda et al., [2012]; cited from earlier work
Text: ERp57 has been previously linked to key processes in neurodegeneration and particularly in AD pathogenesis.

[4] = tested on: tau; parameters: method as in Xu et al., [2013]; details: within the cell; ref Xu et al., [2013]; cited from earlier work
[5] = tested on: Aβ25−35; assay: Thioflavin-T assay, Aβ25−35 aggregation (co-incubation); type: biochemical; details: 1:250 protein/Aβ25−35 molar ratio (4 μM / 1 mM), up to 72 h, 4°C, ThT read at 485 nm, n = 6
Experimental: The amyloid peptide Aβ25−35 was synthesized by conventional solid‐phase chemistry (Atherton & Sheppard, [1990]), and stored at −20°C. The peptide was resuspended in 1,1,1,3,3,3‐Hexafluoro‐2‐propanol (Sigma®, catalog number #105228), incubated for 1 h with gentle shaking at 4°C, then aliquoted and dried in speedVac for 20 min. The aliquots were stored under a vacuum glass bell. The day before being used, aliquots were resuspended in phosphate‐buffered saline (PBS) at a final concentration of 1 mM, incubated in a ultrasonic bath on ice for 30 min to induce aggregation, followed by gentle shaking at 4°C overnight. Aβ25−35 was diluted in culture medium at a final concentration of 30 μM for cell treatments. Aggregation of Aβ25−35 in the presence of ERp57 was obtained as follows: dried aliquots of Aβ25−35 were resuspended in PBS. […]
Thioflavin‐T assay was used to assess the aggregation of the Aβ25−35. […] The assay was performed using a spectrofluorometer Spex Fluoromax® at 25°C; the excitation wavelength was set at 440 nm (5 nm band width) and the fluorescence was measured between 450 and 520 nm (5 nm band width) (Francioso et al., [2020]).

[6] = tested on: α‐synuclein; details: 1:50 molar ratio; ref Serrano et al., [2020]; cited from earlier work
Text: We thus hypothesize that the mechanism by which ERp57 exerts its neuroprotective action resides in ERp57 impairment of peptide aggregation, rather than in disaggregation of existing fibrils. The inhibition of the aggregation was induced by low amounts of ERp57 protein, present in the reaction mixture in a very low molar ratio compared to the peptide (1:250), in line with the experiments conducted by Serr ...

[7] = tested on: full‐length APP; details: permeabilized cells; ref Selivanova et al., [2007]; cited from earlier work
Text: (§1) As previously reported (Williams, [2006]), it is known that ERp57 together with calreticulin and calnexin forms a complex capable of interacting with glycoproteins, including APP, at the […] level, and therefore it can be hypothesized that the contact regions between ERp57 and APP are maintained at least in part also by Aβ, despite the cuts suffered by the secretases.

[8] = tested on: c99 fragment of APP; details: c99 generated by β-secretase; ref Selivanova et al., [2007]; cited from earlier work
Text: as §1

[9] = tested on: pre‐aggregated Aβ25−35; assay: Thioflavin-T assay, reversal of pre-aggregated Aβ25−35; type: biochemical; details: Aβ25−35 aggregated alone 24 h, then 72 h with increasing concentrations of ERp57; n = 3
Experimental: Thioflavin‐T assay was used to assess the aggregation of the Aβ25−35. Thioflavin‐T (catalog number #T3516) was prepared in glycine buffer (0.05 M, pH 8.5) (catalog number #G8898), to a final concentration of 5 μM, in order to be saturated by Aβ25−35 (10 μM). Aβ25−35 was aggregated either alone or in the presence of 0.04 μM ERp57 or GST recombinant protein (in a 1:250 ratio). The assay was performed using a spectrofluorometer Spex Fluoromax® at 25°C; the excitation wavelength was set at 440 nm (5 nm band width) and the fluorescence was measured between 450 and 520 nm (5 nm band width) (Francioso et al., [2020]).
Having ascertained the ability of ERp57 to block the aggregation process, we wondered if the protein was able to reverse a preformed amyloid fibril into oligomeric/monomeric forms. To understand this, we aggregated Aβ25−35 alone for 24 h and then incubated it for 72 h in the presence of increasing concentrations of ERp57, assessing every 24 h the state of aggregation by thioflavin T assay (Figure 5c). […] Probably this phenomenon could be because of the fact that the presence of a protein capable of interacting with Aβ25−35 (given the previous experiments) can favor to the maintenance of Aβ25−35 in solution, facilitating the process of aggregation. […]

[10] = tested on: Aβ peptide; details: cerebrospinal fluid of healthy people; ref Erickson et al., [2005]; cited from earlier work
Text: ERp57 is an endoplasmic reticulum disulfide isomerase which modulates folding of newly synthesized glycoproteins by recognizing and interacting with peptides or incorrectly folded proteins, thereby promoting formation of disulfide bonds and correct protein folding (Torres et al., [2015]). Conversely, Aβ is a small peptide that, because of its intrinsic characteristics, tends to aggregate and to escape the ER‐associated degradation process (ERAD) (Holtzman, [2013]). Eventually, monomeric Aβ is released out of the cell and begins its slow aggregation into fibrils that will form the template for ...

- Kd [2]: 33 ± 2 µM
Molecule: CC[C@H](C)[C@H](NC(=O)[C@H](C)NC(=O)CNC(=O)[C@H](CCCCN)NC(=O)[C@H](CC(N)=O)NC(=O)[C@H](CO)NC(=O)CN)C(=O)N[C@H](C(=O)NCC(=O)N[C@@H](CC(C)C)C(=O)N[C@@H](CCSC)C(=O)O)[C@@H](C)CC [Aβ25−35] (H-GSNKGAIIGLM-OH)
- toxicity of Aβ25−35 bound by ERp57 ([1]; Aβ25−35 aggregated with ERp57): no longer leads to toxicity

Molecule: C[C@@H]1CC[C@@]2(OC1)O[C@H]1C[C@H]3[C@@H]4CC=C5C[C@@H](O)CC[C@]5(C)[C@H]4CC[C@]3(C)[C@H]1[C@@H]2C [diosgenin]
- object recognition memory; amyloid plaques and neurofibrillary tangles [3]: significantly improves performance of object recognition memory and reduces amyloid plaques and neurofibrillary tangles

Molecule: PDI: protein disulfide isomerase
- effect on tau fibril formation [4]: able to reduce the formation of tau fibrils

B1: ERp57: thiol oxidoreductase with Protein Disulfide Isomerase activity; human recombinant PDIA3 expressed in E. coli (protein)
chain: SDVLELTDDNFESRISDTGSAGLMLVEFFAPWCGHCKRLAPEYEAAATRLKGIVPLAKVDCTANTNTCNKYGVSGYPTLKIFRDGEEAGAYDGPRTADGIVSHLKKQAGPASVPLRTEEEFKKFISDKDASIVGFFDDSFSEAHSEFLKAASNLRDNYRFAHTNVESLVNEYDDNGEGIILFRPSHLTNKFEDKTVAYTEQKMTSGKIKKFIQENIFGICPHMTEDNKDLIQGKDLLIAYYDVDYEKNAKGSNYWRNRVMMVAKKFLDAGHKLNFAVASRKTFSHELSDFGLESTAGEIPVVAIRTAKGEKFVMQEEFSRDGKALERFLQDYFDGNLKRYLKSEPIPESNDGPVKVVVAENFDEIVNNENKDVLIEFYAPWCGHCKNLEPKYKELGEKLSKDPNIVIAKMDATANDVPSPYEVRGFPTIYFSPANKKLNPKKYEGGRELSDFISYLQREATNPPVIQEEKPKKKKKAQEDL
- effect on Aβ25−35 aggregation (ThT fluorescence) [5]: a marked reduction in the fluorescence signal; also recorded: completely blocks this process; also recorded: strongly reduced the aggregation of the peptide
- effect on α-synuclein aggregation [6]: able to reduce the aggregation of α‐synuclein in a very efficient manner
- cell viability (with Aβ25−35) ([1]; 30 μM Aβ25−35 aggregated 72 h with 0.12 μM protein (1:250), 24 h treatment, MTT, n = 4): counteracts the toxic effects of Aβ25−35 and restores cellular viability; also recorded: significant increase in cell viability; also recorded: their viability was preserved
- cell viability (protein alone) ([1]; protein alone, without Aβ25−35, 24 h, MTT, n = 4): no effect on cell viability
- interaction with full-length APP [7]: interacts with full‐length APP
- interaction with c99 fragment of APP [8]: does not interact with the c99 fragment of APP
- ThT fluorescence intensity of pre-aggregated Aβ25−35 [9]: increased in a dose‐dependent manner
- reversal of preformed amyloid [9]: not able to reverse the amyloid aggregation; also recorded: not able to disassemble pre‐aggregated Aβ25−35; also recorded: fails to disaggregate a fibril
- complex of ERp57 with Aβ [10]: linked to Aβ in the cerebrospinal fluid of healthy people
